Results: patent US20190309044A1, “POLYPEPTIDES AND USES THEREOF AS A DRUG FOR TREATMENT OF AUTOIMMUNE DISORDERS” (Compugen Ltd., priority 2017, published 2019)

What was measured:
NOD mice = test: Type 1 diabetes incidence in NOD mice; format: in vivo, mouse; settings: Study III; p<0.001
Description: The effect of C1ORF32 ECD-Fc treatment on modulation of disease incidence was tested in NOD mice, which spontaneously develop a T1D disease. In NOD mice, autoreactive CD4+ can be observed within the β-islets as early as 2 weeks of age (Yang et al., Immunity. 1996 February; 4(2):189-94), and by 10 weeks of age, when the treatment with C1ORF32 ECD-Fc (SEQ ID NO: 42) began in the present experiments, NOD mice develop peri-insulitis and β-cell loss (Jimeno et al., Immunology and Cell Biology. (2010) 88, 734-745).
Materials: C1ORF ECD-Fc (SEQ ID NO:42) was used in these studies, as described below. Control Ig was mouse IgG2a from BioXcell (Cat# BE0085). NOD mice were purchased from Jackson labs, and blood glucose was measured via sampling a small drop of blood from the tail vein.
Methods: Six week old NOD mice were purchased from Jackson labs. […] Blood glucose levels were monitored weekly from 8 weeks of age until the mice reached […] of age as detailed below. Mice were considered diabetic upon having two consecutive blood glucose readings of >250 mg/dL. Diabetic mice were sacrificed on the day of the second high glucose level reading. Blood glucose levels were obtained from the tail vein, and the level of blood glucose measured via use of a OneTouch. […]

total splenocytes = test: Ex vivo recall responses of splenocytes, HY bone marrow transplantation model; format: in vivo, mouse
Description: On week 8 post bone marrow cell transplantion, total splenocytes (5×10^5 cells/well) were cultured in the presence of medium alone (no stimulation), anti-CD3(1 ug/ml), DBY peptide (10 ug/ml), irradiated male splenocytes (5×10^5 cells/well), or irradiated female splenocytes (5×10^5 cells/well). The individual splenocyte samples were cultured separately in triplicate wells. For T cell proliferative response, the cultures were pulsed with 1 uCi of tritiated thymidine at 24 hours and harvested at 72 hours post culture initiation. The statistical analysis carried out on the data is one-way ANOVA followed by Dunnett's post test as compared to the mice receiving male CD45.1+ bone marrow cells plus Control Ig treatment, p-values *<0.05, **<0.01,***<0.001, and #<0.0001.
On week 8 post bone marrow cell transplant, total splenocytes (5×10^5 cells/well) were cultured in the presence of medium alone (no stimulation), anti-CD3 (1 ug/ml), DBY peptide (10 ug/ml), irradiated male splenocytes (5×10^5 cells/well), or irradiated female splenocytes (5×10^5 cells/well). The individual splenocyte samples were cultured separately in triplicate wells. For the cytokine cultures, the supernatants were collected at 72 hours post culture initiation and the level of secreted cytokine was determined via LiquiChip. […]
These same populations of cells were analyzed at week 8 within the spleen. […]

B1: C1ORF32 ECD-Fc (SEQ ID NO:42): human-mouse fusion protein: human C1ORF32 ECD fused to mouse immunoglobulin Fc (SEQ ID NO:42) (protein)
chain: LQVTVPDKKKVAMLFQPTVLRCHFSTSSHQPAVVQWKFKSYCQDRMGESLGMSSTRAQSLSKRNLEWDPYLDCLDSRRTVRVVASKQGSTVTLGDFYRGREITIVHDADLQIGKLMWGDSGLYYCIITTPDDLEGKNEDSVELLVLGRTGLLADLLPSFAVEIMGSENLYFQGSGEPRGPTIKPCPPCKCPAPNLLGGPSVFIFPPKIKDVLMISLSPIVTCVVVDVSEDDPDVQISWFVNNVEVHTAQTQTHREDYNSTLRVVSALPIQHQDWMSGKEFKCKVNNKDLPAPIERTISKPKGSVRAPQVYVLPPPEEEMTKKQVTLTCMVTDFMPEDIYVEWTNNGKTELNYKNTEPVLDSDGSYFMYSKLRVEKKNWVERNSYSCSVVHEGLHNHHTTKSFSRTPGK
modifications: Fusion protein human C1ORF32-ECD fused to mouse IgG2a Fc
With B1 the “incidence of T1D in comparison to Control Ig and PBS” value (NOD mice) was “significantly decreased incidence of T1D”, the “IL-10 and IL-4” value (total splenocytes; activation with irradiated male splenocytes) was “increased level” and the “IL-10 and IL-4 secretion” value (total splenocytes; week 8 splenocytes, in response to male or female splenocytes) was “significantly increased”.
